{
  "source": "patent US20030144208A1",
  "about": "(ZymoGenetics, published 2003)",
  "biological_target": "T1, BSA V (Sigma Co.) (bovine, UniProt P02769 25-607)",
  "T1 construct": "Negative control of the ELISA; also called BSA control; bovine serum albumin",
  "T1 sequence (P02769 25-607 limits assumed)": "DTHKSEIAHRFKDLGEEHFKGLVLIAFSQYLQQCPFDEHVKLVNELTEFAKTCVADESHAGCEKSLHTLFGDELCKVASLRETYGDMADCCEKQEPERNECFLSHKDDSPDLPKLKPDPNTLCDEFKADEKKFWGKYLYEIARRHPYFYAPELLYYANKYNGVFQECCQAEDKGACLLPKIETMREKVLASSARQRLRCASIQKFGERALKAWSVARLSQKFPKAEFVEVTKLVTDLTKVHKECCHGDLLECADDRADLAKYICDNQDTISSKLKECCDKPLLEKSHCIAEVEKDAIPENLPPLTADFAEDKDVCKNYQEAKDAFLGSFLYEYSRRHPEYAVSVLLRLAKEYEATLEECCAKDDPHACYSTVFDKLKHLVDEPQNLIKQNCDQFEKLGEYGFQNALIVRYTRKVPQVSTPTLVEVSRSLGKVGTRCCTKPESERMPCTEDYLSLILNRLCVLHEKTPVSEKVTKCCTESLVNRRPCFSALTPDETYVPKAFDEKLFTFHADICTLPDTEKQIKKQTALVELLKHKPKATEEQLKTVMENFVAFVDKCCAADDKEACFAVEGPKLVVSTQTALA",
  "experiment": "ELISA on plated matrix protein, anti-FITC/biotin, streptavidin/HRP, chemiluminescence on film",
  "experimental": "An ELISA (Enzyme-linked Immunosorbant Assay) was used to measure binding of zsig37 to various matrix proteins and complement C1q. The matrix proteins used were Bovine Collagen Type I (Becton Dickinson, Lincoln Park, N.J.) laminin, vitronectin, fibronectin, human collagen Types II, III, IV, V, VI (Chemicon International, Temecula, Calif.). BSA V (Sigma Co.) was used as a negative control. Just prior to use, the proteins were diluted in 2×PBS (Phosphate Buffered Saline, Sigma Co.) to 100 μg/ml and adjusted to pH 7.2 with 0.1 N NaOH. Each protein sample was quadruplicate plated (100 μl/well) into a 96 well plate. The plate was allowed to dry overnight in a laminar flow hood and washed 3 times with 400 μl of 5 mg/ml BSA in 1×PBS and blotted dry. Zsig37 was FITC labeled according to manufacturer's instruction (Pierce, Rockford, Ill.). Into each well was added 100 μl of 1.8 μg/ml zsig37-FITC in 5% BSA, PBS. The plates were incubated for 1.5 hours at room temperature then washed 3 time with 5% BSA, PBS. To each well was then added 100 μl of 1:400 mouse anti-FITC/Biotin (Sigma Co.). The plate was incubated 1.5 hours at room temperature and washed 3 times with 5% BSA, PBS. The plate was then incubated with 100 μl of 1:1000 streptavidin/HRP (Amersham, Piscataway, N.J.) for 1 hour and washed 3 times with 5% BSA, PBS. […]",
  "data": [
    {"binder": "zsig37-FITC (ligand, FITC label (sites not given), 22-281 is used here; also called FITC labeled zsig37; FITC tagged Zsig37 protein) LVLSRVPHVQGEQQEWEGTEELPSPPDHAERAEEQHEKYRPSQDQGLPASRCLRCCDPGTSMYPATAVPQINITILKGEKGDRGDRGLQGKYGKTGSAGARGHTGPKGQKGSMGAPGERCKSHYAAFSVGRKKPMHSNHYYQTVIFDTEFVNLYDHFNMFTGKFYCYVPGLYFFSLNVHTWNQKETYLHIMKNEEEVVILFAQVGDRSIMQSQSLMLELREQDQVWVRLYKGERENAIFSEELDTYITFSGYLVKHATEP", "values": [
      {"measurement": "binding result", "result": "no binding (tested: 1.8 µg/ml zsig37-FITC)"}
    ]}
  ]
}
